In US20190023810A1 (MIT, published 2019):
Blank lines part the entries; values can stand above or below the binder they belong to.

Experiments:
VEGF = VEGF (UniProt P15692-4 27-191, limits assumed); assay: sandwich (dual antigen) ELISA for PD1 and VEGF bound at once; the filing does not say which antigen is coated and which is detected
PD1 = PD1 (UniProt Q15116 25-167, limits assumed); assay: as above
HER3 [1] = target: T1, HER3 (UniProt P21860 20-643, limits assumed); assay: single antigen ELISA, HER3 coated, anti-human IgG HRP detection
Protocol: (§1) Briefly 96-well plates were coated overnight at […] with appropriate antigen. The plates were washed and blocked with 1% blotto (Santa Cruz Biotechnologies). Serial dilution of antibodies were added to the plate and incubated for 2 hours at room temperature. Antigen bound IgG was detected using RbαHu IgG HRP Conjugated secondary antibody (Jackson ImmunoResearch) followed by TMB substrate (KPL) addition.

HER1 = target: T2, HER1 (UniProt P00533 25-645, limits assumed); assay: single antigen ELISA, antigen coated; printed as Kd′, from a 4 parametric fit
T2 construct: also called EGFR
Protocol: as §1

CD20 = target: T3, CD20 (UniProt P11836 1-297, limits assumed); assay: CD20 binding titration; legend and text call it an ELISA, but the y axis 'Mean APC-A Intensity' fits the flow cytometry cell-based binding assay on Raji cells
T3 sequence (looked up): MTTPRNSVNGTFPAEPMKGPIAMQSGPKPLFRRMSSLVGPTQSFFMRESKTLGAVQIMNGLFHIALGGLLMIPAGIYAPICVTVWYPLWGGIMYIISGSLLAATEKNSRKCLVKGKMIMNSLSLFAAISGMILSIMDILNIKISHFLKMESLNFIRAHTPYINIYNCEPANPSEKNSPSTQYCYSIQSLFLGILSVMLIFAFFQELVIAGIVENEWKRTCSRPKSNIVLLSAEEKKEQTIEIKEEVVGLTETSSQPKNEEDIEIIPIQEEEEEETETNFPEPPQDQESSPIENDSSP

HER3 [2] = target: T1, HER3; assay: single antigen ELISA, antigen coated; printed as Kd′, from a 4 parametric fit
Protocol: as §1

Sequence of PD1 (Q15116 25-167 limits assumed): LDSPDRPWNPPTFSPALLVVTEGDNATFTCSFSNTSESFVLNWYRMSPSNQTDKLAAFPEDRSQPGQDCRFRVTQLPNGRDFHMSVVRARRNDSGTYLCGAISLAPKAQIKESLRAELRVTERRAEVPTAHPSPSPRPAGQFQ
Sequence of VEGF (P15692 other isoform, or with tags, fused parts or gaps limits assumed): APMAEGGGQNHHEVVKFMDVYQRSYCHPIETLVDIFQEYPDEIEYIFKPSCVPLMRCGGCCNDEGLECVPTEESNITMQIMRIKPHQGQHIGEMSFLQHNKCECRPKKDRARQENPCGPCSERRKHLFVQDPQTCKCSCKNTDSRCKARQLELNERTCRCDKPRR

B1: nivolumab/bevacizumab bispecific antibody (bispecific antibody, human IgG1, kappa)
light 1: not shown
heavy 1: not shown
light 2: DIQMTQSPSSLSASVGDRVTITCSASQDISNYLNWYQQKPGKAPKVLIYFTSSLHSGVPSRFSGSGSGTDFTLTISSLQPEDFATYYCQQYSTVPWTFGQGTKVEIKRTVAAPSVFIFPPSDEKLKSGTASVVCLLKNFYPREAKVQWKVDNALQSGNSQESVTEQDSKDSTYSLSSALTLSKADYEKHKVYACEVTHQGLSSPVTKSFNRGEC
heavy 2: not shown
notes: Human IgG1/kappa bispecific with four different chains; also called BsAb
EC50 (read off the curve) (VEGF): ~0.2 µg/mL | EC50 (read off the curve) (PD1): ~0.2 µg/mL

B2: Pertuzumab WT (antibody, V domains shown)
VH: EVQLVESGGGLVQPGGSLRLSCAASGFTFTDYTMDWVRQAPGKGLEWVADVNPNSGGSIYNQRFKGRFTLSVDRSKNTLYLQMNSLRAEDTAVYYCARNLGPSFYFDYWGQGTLVTVSS
VL: DIQMTQSPSSLSASVGDRVTITCKASQDVSIGVAWYQQKPGKAPKLLIYSASYRYTGVPSRFSGSGSGTDFTLTISSLQPEDFATYYCQQYYIYPYTFGQGTKVEIKR
binding result (HER3 [1]): no binding (tested: 1 (axis 'Ab Conc.', no unit printed))

B5: pertuzumab/DL11 bispecific antibody (bispecific antibody, human IgG1, kappa)
light 1: DIQMTQSPSSLSASVGDRVTITCKASQDVSIGVAWYQQKPGKAPKLLIYSASYRYTGVPSRFSGSGSGTDFTLTISSLQPEDFATYYCQQYYIYPYTFGQGTKVEIKRTVAAPSVFIFPPSDEDLKSGTASVVCLLDNFYPREAKVQWKVDNALQSGNSQESVTEQDSKDSTYSLSSTLTLSKADYEKHKVYACEVTHQGLSSPVTKSFNRGEC
heavy 1: not shown
light 2: DIQMTQSPSSLSASVGDRVTITCRASQDLATDVAWYQQKPGKAPKLLIYSASFLYSGVPSRFSGSGSGTDFTLTISSLQPEDFATYYCQQSEPEPYTFGQGTKVEIKRTVAAPSVFIFPPSDEKLKSGTASVVCLLKNFYPREAKVQWKVDNALQSGNSQESVTEQDSKDSTYSLSSALTLSKADYEKHKVYACEVTHQGLSSPVTKSFNRGEC
heavy 2: not shown
notes: Human IgG1/kappa bispecific with four different chains; Expressed in Freestyle 293 cells and purified by protein A, gel filtration and the cation exchange main peak; also called P/D; P/D bi-specific
Kd (HER1): 0.0898 nM | Kd (HER3 [2]): 0.0898 nM

More lines, now with the values ahead:

Kd (HER1): 0.0415 nM
B3: DL11 WT (antibody, V domains shown)
VH: EVQLVESGGGLVQPGGSLRLSCAASGFTLSGDWIHWVRQAPGKGLEWLGEISAAGGYTDYADSVKGRFTISADTSKNTAYLQMNSLRAEDTAVYYCARESRVSFEAAMDYWGQGTLVTVSS
VL: DIQMTQSPSSLSASVGDRVTITCRASQDLATDVAWYQQKPGKAPKLLIYSASFLYSGVPSRFSGSGSGTDFTLTISSLQPEDFATYYCQQSEPEPYTFGQGTKVEIKR
notes: also called MEHD7945A

EC50 (read off the curve) (CD20): ~2 µg/mL
B4: rituximab/obinutuzumab bispecific antibody (bispecific antibody, human IgG1, kappa)
light 1: QIVLSQSPAILSASPGEKVTMTCRASSSVSYIHWFQQKPGSSPKPWIYATSNLASGVPVRFSGSGSGTSYSLTISRVEAEDAATYYCQQWTSNPPTFGGGTKLEIKRTVAAPSVFIFPPSDEDLKSGTASVVCLLDNFYPREAKVQWKVDNALQSGNSQESVTEQDSKDSTYSLSSTLTLSKADYEKHKVYACEVTHQGLSSPVTKSFNRGEC
heavy 1: not shown
light 2: DIVMTQTPLSLPVTPGEPASISCRSSKSLLHSNGITYLYWYLQKPGQSPQLLIYQMSNLVSGVPDRFSGSGSGTDFTLKISRVEAEDVGVYYCAQNLELPYTFGGGTKVEIKRTVAAPSVFIFPPSDEKLKSGTASVVCLLKNFYPREAKVQWKVDNALQSGNSQESVTEQDSKDSTYSLSSALTLSKADYEKHKVYACEVTHQGLSSPVTKSFNRGEC
heavy 2: not shown
notes: Human IgG1/kappa bispecific with four different chains; Both arms are anti-CD20; also called Rxm/Ga101; Rxm/GA101
